Laboratory results taken from PMC2603141 (Virology, 2008).

Target: the molecule itself
Experiment: reducing and non-reducing SDS-PAGE

B1: PIV 5 HN stalk region, HN(stalk) (domain or fragment)
chain: SPSSGLGSITDLLNNILSVANQIIYNSAVALPLQLDTLESTLLTAIKSLQTSDKLEQNCSWSAAL
modifications: also: inter-chain disulfide, covalent dimer
- stoichiometry N: 2
